# Test results as given in US20110262464A1, “Compositions, Kits, and Methods for the Diagnosis, Prognosis, and Monitoring of Cancer Using GOLPH3” (DANAFARBER CANCER INSTITUTE, INC., priority 2008, published 2011).
# B1: EGF: epidermal growth factor (Invitrogen), 100 ng/ml for stimulation assays (protein, UniProt P01133 23-1207, looked up)
# Pro-epidermal growth factor: PQHWSCPEGTLAGNGNSTCVGPAPFLIFSHGNSIFRIDTEGTNYEQLVVDAGVSVIMDFHYNEKRIYWVDLERQLLQRVFLNGSRQERVCNIEKNVSGMAINWINEEVIWSNQQEGIITVTDMKGNNSHILLSALKYPANVAVDPVERFIFWSSEVAGSLYRADLDGVGVKALLETSEKITAVSLDVLDKRLFWIQYNREGSNSLICSCDYDGGSVHISKHPTQHNLFAMSLFGDRIFYSTWKMKTIWIANKHTGKDMVRINLHSSFVPLGELKVVHPLAQPKAEDDTWEPEQKLCKLRKGNCSSTVCGQDLQSHLCMCAEGYALSRDRKYCEDVNECAFWNHGCTLGCKNTPGSYYCTCPVGFVLLPDGKRCHQLVSCPRNVSECSHDCVLTSEGPLCFCPEGSVLERDGKTCSGCSSPDNGGCSQLCVPLSPVSWECDCFPGYDLQLDEKSCAASGPQPFLLFANSQDIRHMHFDGTDYGTLLSQQMGMVYALDHDPVENKIYFAHTALKWIERANMDGSQRERLIEEGVDVPEGLAVDWIGRRFYWTDRGKSLIGRSDLNGKRSKIITKENISQPRGIAVHPMAKRLFWTDTGINPRIESSSLQGLGRLVIASSDLIWPSGITIDFLTDKLYWCDAKQSVIEMANLDGSKRRRLTQNDVGHPFAVAVFEDYVWFSDWAMPSVMRVNKRTGKDRVRLQGSMLKPSSLVVVHPLAKPGADPCLYQNGGCEHICKKRLGTAWCSCREGFMKASDGKTCLALDGHQLLAGGEVDLKNQVTPLDILSKTRVSEDNITESQHMLVAEIMVSDQDDCAPVGCSMYARCISEGEDATCQCLKGFAGDGKLCSDIDECEMGVPVCPPASSKCINTEGGYVCRCSEGYQGDGIHCLDIDECQLGEHSCGENASCTNTEGGYTCMCAGRLSEPGLICPDSTPPPHLREDDHHYSVRNSDSECPLSHDGYCLHDGVCMYIEALDKYACNCVVGYIGERCQYRDLKWWELRHAGHGQQQKVIVVAVCVVVLVMLLLLSLWGAHYYRTQKLLSKNPKNPYEESSRDVRSRRPADTEDGMSSCPQPWFVVIKEHQDLKNGGQPVAGEDGQAADGSMQPTSWRQEPQLCGMGTEQGCWIPVSSDKGSCPQVMERSFHMPSYGTQTLEGGVEKPHSLLSANPLWQQRALDPPHQMELTQ
# modifications: Pro-epidermal growth factor
# notes: epidermal growth factor (Invitrogen), 100 ng/ml for stimulation assays
# System: GOLPH3 localization at the Golgi in A549 cells
# Assay: Immunofluorescence of GOLPH3 localization
# Assay type: cell-based, human
# Conditions: A549 treated with EGF at specific time points
# Protocol: For immunofluorescence studies, cells were cultured on cover slips, followed by fixation for 15 min at RT in 4% paraformaldehyde in PBS, permeabilization for 10 min RT in 0.1% Triton X-100/PBS and blocking 1 hr RT in 10% goat or donkey serum/PBS. Slides were incubated 1 hr RT with the following antibodies: mouse anti-HA (1:100, Cell Signaling); rabbit anti-TGN46 (1:500; Abcam), goat anti-VPS35 (1:200; Abcam) and mouse anti-GOLPH3 (1:300). Slides were stained for 1 hour RT with the corresponding Alexa Flour secondary antibodies (Invitrogen). Cover slips were stained with DAPI (Sigma) and mounted with mounting medium. Microscopic images were obtained with a Nikon inverted Ti microscope equipped with Yokogawa spinning disk confocal/TIRF system and a Hamamatsu Orca ER firewire digital CCD camera using constant exposure times for each channel in individual experiments. Images were compiled and false-colored with Adobe Photoshop using identical settings for each color. Magnification is 100× unless otherwise indicated.
# In order to determine whether or not ARF4 might regulate GOLPH3 localization at the Golgi apparatus, ARF4 siRNA were transfected into A549 cells.
molecule,measurement,value
B1,GOLPH3 localization at the Golgi,redistribution of GOLPH3 from the Golgi
